Data published in patent publication US20250340661A1, “ANTI CD40 ANTIBODY, ANTIGEN BINDING FRAGMENT AND MEDICAL USE THEREOF” (Jiangsu Hengrui Pharmaceuticals Co., Ltd., priority 2021, published 2025).

Tests used:
[1] = molecular target: human CD40 on the cell surface (human) (UniProt P25942); test: cell-based or functional assay
[2] = molecular target: human CD40 on the cell surface (human) (UniProt P25942); test: flow cytometry on Raji cells, AF647 anti-human IgG detection
[3] = molecular target: human CD40 on the cell surface (human) (UniProt P25942); test: flow cytometry on Raji cells, Alexa Fluor 488 anti-human IgG (H+L) detection
[4] = molecular target: his-tagged human CD40 (h-CD40-his) recombinant protein (human) (UniProt P25942); test: SPR (Biacore), antibody captured on anti-human Fc chip, His-tagged CD40 as analyte, 1:1 model
his-tagged human CD40 (h-CD40-his) recombinant protein (human), sequence (P25942 21-193 limits assumed): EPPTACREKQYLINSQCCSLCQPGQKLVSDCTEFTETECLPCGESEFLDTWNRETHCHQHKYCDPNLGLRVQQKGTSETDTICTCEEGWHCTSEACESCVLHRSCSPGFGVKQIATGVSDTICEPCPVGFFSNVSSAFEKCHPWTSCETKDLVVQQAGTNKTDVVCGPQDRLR

human CD40 on the cell surface (human), sequence (P25942 21-277): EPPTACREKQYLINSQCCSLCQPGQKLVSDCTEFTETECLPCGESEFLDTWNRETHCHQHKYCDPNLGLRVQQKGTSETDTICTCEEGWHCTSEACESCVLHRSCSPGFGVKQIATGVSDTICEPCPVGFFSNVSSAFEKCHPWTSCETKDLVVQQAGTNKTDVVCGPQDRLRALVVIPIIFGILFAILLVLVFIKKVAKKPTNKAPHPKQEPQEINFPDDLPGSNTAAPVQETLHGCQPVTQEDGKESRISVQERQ

## anti-CD40 antagonistic antibody CFZ533 (iscalimab)
[1]
  B cell activation assay, CD19+CD69+ % IC50: 0.14 nM
  B cell activation assay, CD19+CD69+ % Maximum inhibition rate: 95%
  B cell activation assay, CD19+CD69+ MFI IC50: 0.07 nM
  B cell activation assay, CD19+CD69+ MFI Maximum inhibition rate: 110%
  IC50 for the inhibition of CD40 reporter gene cell activity (Assay 1): 0.36 nM
  IC50 for the inhibition of CD40 reporter gene cell activity (Assay 2): 0.35 nM
  IC50 in DC cell activation assay system, CD80 MFI: 1.19 nM
  IC50 in DC cell activation assay system, CD86 MFI: 1.93 nM
  IC50 in DC cell activation assay system, IL-12/23 p40: 0.68 nM
  IC50 in DC cell activation assay system, TNFα: 0.35 nM
  reporter gene cell activity IC50 (HEK-Blue CD40L cells, SEAP): 0.272 nM
[2]
  EC50: 2.41 nM
[3]
  EC50: 1.01 nM
[4]
  Kd: 0.205 nM
  koff: 0.000141 s⁻¹
  kon: 688000 M⁻¹ s⁻¹
